Laboratory results from US20210214461A1.
Each block holds one binder with its values, some of them ahead of it.

Experiments:
[1] = target: pre-existing anti-scFv903 antibodies in human serum H60 (human); experiment: competition ADA bridging ELISA, 100 mcg/ml competitor
[2] = target: pre-existing anti-scFv903 antibodies in human serum H135 (human); experiment: as above
[3] = target: pre-existing anti-scFv903 antibodies in human serum H19 (human); experiment: as above
[4] = target: pre-existing anti-scFv903 antibodies in human serum H76 (human); experiment: as above
[5] = target: pre-existing anti-scFv903 antibodies in human serum H69 (human); experiment: as above
[6] = target: pre-existing anti-scFv903 antibodies in human serum H26 (human); experiment: as above
[7] = target: pre-existing anti-scFv903 antibodies in human serum H63 (human); experiment: as above
[8] = target: pre-existing anti-scFv903 antibodies in human serum H59 (human); experiment: as above
[9] = target: pre-existing anti-scFv903 antibodies in human serum H96 (human); experiment: as above
[10] = target: pre-existing anti-scFv903 antibodies in human serum H105 (human); experiment: as above
[11] = target: pre-existing anti-scFv903 antibodies in human serum H55 (human); experiment: as above
[12] = target: pre-existing anti-scFv903 antibodies in human serum H29 (human); experiment: as above
[13] = target: pre-existing anti-scFv903 antibodies in human serum H15 (human); experiment: as above
[14] = target: pre-existing anti-scFv903 antibodies in human serum H40 (human); experiment: as above
[15] = target: pre-existing anti-scFv903 antibodies in human serum H54 (human); experiment: as above
[16] = target: pre-existing anti-scFv903 antibodies in human serum H66 (human); experiment: as above
[17] = target: pre-existing anti-scFv903 antibodies in human serum H80 (human); experiment: as above
[18] = target: pre-existing anti-scFv903 antibodies in human serum H20 (human); experiment: as above
[19] = target: pre-existing anti-scFv903 antibodies in human serum H46 (human); experiment: as above
[20] = target: pre-existing anti-scFv903 antibodies in human serum H81 (human); experiment: as above
[21] = target: pre-existing anti-scFv903 antibodies in human serum H115 (human); experiment: as above
[22] = target: pre-existing anti-scFv903 antibodies in human serum H53 (human); experiment: as above
[23] = target: pre-existing anti-scFv903 antibodies in human serum H49 (human); experiment: as above
[24] = target: pre-existing anti-scFv903 antibodies in human serum H21 (human); experiment: as above
[25] = target: pre-existing anti-scFv903 antibodies in human serum H116 (human); experiment: as above
[26] = target: pre-existing anti-scFv903 antibodies in human serum H125 (human); experiment: as above
[27] = target: pre-existing anti-scFv903 antibodies in human serum H79 (human); experiment: as above
[28] = target: pre-existing anti-scFv903 antibodies in human serum H8 (human); experiment: as above
[29] = target: pre-existing anti-scFv903 antibodies in human serum H56 (human); experiment: as above
[30] = target: pre-existing anti-scFv903 antibodies in human serum H50 (human); experiment: as above
[31] = target: pre-existing anti-scFv903 antibodies in human serum H86 (human); experiment: as above
[32] = target: pre-existing anti-scFv903 antibodies in human serum H3 (human); experiment: as above
[33] = target: pre-existing anti-scFv903 antibodies in human serum H14 (human); experiment: as above
[34] = target: pre-existing anti-scFv903 antibodies in human serum H135 (human); experiment: competition ADA bridging ELISA
[35] = target: pre-existing anti-scFv903 antibodies in human serum H76 (human); experiment: competition ADA bridging ELISA
[36] = target: pre-existing anti-scFv903 antibodies in human serum H63 (human); experiment: competition ADA bridging ELISA
[37] = target: pre-existing anti-scFv903 antibodies in human serum H96 (human); experiment: competition ADA bridging ELISA
[38] = target: pre-existing anti-scFv903 antibodies in human serum H40 (human); experiment: competition ADA bridging ELISA
[39] = target: pre-existing anti-scFv903 antibodies in human serum H81 (human); experiment: competition ADA bridging ELISA
[40] = target: pre-existing anti-scFv903 antibodies in human serum H49 (human); experiment: competition ADA bridging ELISA
[41] = target: pre-existing anti-scFv903 antibodies in human serum H50 (human); experiment: competition ADA bridging ELISA
[42] = target: pre-existing anti-scFv903 antibodies in human serum H64 (human); experiment: competition ADA bridging ELISA, 100 mcg/ml competitor

signal change in competition ELISA [1]: -95.6% | % reduction in OD [2]: -92.5% | signal change in competition ELISA (% change in OD) [3]: -90.3% | % reduction in OD [4]: -97% | signal change in competition ELISA (% change in OD) [5]: -92.2% | % change in OD (signal change) [6]: -92% | % change in OD (signal change in competition ELISA) [7]: -96.8% | signal change in competition ELISA (% change in OD) [8]: -97% | % reduction in OD [9]: -80.3% | % reduction in OD [10]: -97.2% | % signal change in OD (negative = reduction) [11]: -89.4% | % change in OD signal [12]: -79.4% | % change in OD (signal change in competition ELISA) [13]: -91.1% | % signal change in OD (negative = reduction) [14]: -95.4% | signal change in OD (%) [15]: -93.1% | % change in OD [16]: -97.2% | % reduction in OD [17]: -87% | signal change in competition ELISA [18]: -91.9% | % change in OD signal [19]: -79.8% | % reduction in OD [20]: -94.7% | % reduction in OD [21]: -94.7% | signal change in competition ELISA (%) [22]: -32.4% | % change in OD in competition ELISA [23]: -82.7% | % signal change in competition ELISA [24]: -85.4% | % reduction in OD [25]: -97.8% | % reduction in OD [26]: -97.9% | % reduction in OD [27]: -97.1% | % reduction in OD [28]: -87.3% | % change in OD [29]: -24.4% | signal change in competition ELISA (% change in OD) [30]: -88.7% | % reduction in OD [31]: -86.2% | % reduction in OD [32]: -79.9% | % change in OD signal [33]: -96.6% | signal change in competition ELISA (% reduction in OD) [34]: -93% | signal change in competition ELISA (% reduction in OD) [35]: -97% | signal change in competition ELISA (% reduction in OD) [36]: -97% | signal change in competition ELISA (% reduction in OD) [37]: -80% | signal change in competition ELISA (% reduction in OD) [38]: -95% | signal change in competition ELISA (% reduction in OD) [39]: -95% | signal change in competition ELISA (% reduction in OD) [40]: -83% | signal change in competition ELISA (% reduction in OD) [41]: -89%
B1: scFv 903 (scFv)
scFv: EIVMTQSPSTLSASVGDRVIITCQASEIIHSWLAWYQQKPGKAPKLLIYLASTLASGVPSRFSGSGSGAEFTLTISSLQPDDFATYYCQNVYLASTNGANFGQGTKLTVLGGGGGSGGGGSGGGGSGGGGSEVQLVESGGGLVQPGGSLRLSCTASGFSLTDYYYMTWVRQAPGKGLEWVGFIDPDDDPYYATWAKGRFTISRDTSKNTVYLQMNSLRAEDTAVYYCAGGDHNSGWGLDIWGQGTLVTVSS

% reduction in OD [1]: -1.2% | % reduction in OD [2]: -74.7% | % reduction in OD [3]: -63.7% | % reduction in OD [4]: -36.4% | % reduction in OD [5]: -6.2% | % reduction in OD [6]: 0.1% | % reduction in OD [7]: -35.9% | % reduction in OD [8]: -67.3% | % reduction in OD [9]: -78% | % reduction in OD [10]: 7.4% | % reduction in OD [11]: -14.7% | % reduction in OD [12]: -21.9% | % reduction in OD [14]: -1.7% | % reduction in OD [15]: -69.4% | % reduction in OD [42]: -13.7% | % reduction in OD [17]: -55.1% | % reduction in OD [18]: -23.5% | % reduction in OD [19]: -40.1% | % reduction in OD [20]: -8.8% | % reduction in OD [21]: -31.4% | % reduction in OD [22]: -30.9% | % reduction in OD [23]: -8.8% | % reduction in OD [24]: -80.5% | % reduction in OD [25]: -33.2% | % reduction in OD [26]: 2.7% | % reduction in OD [27]: -74.1% | % reduction in OD [28]: -88.6% | % reduction in OD [29]: -23.8% | % reduction in OD [30]: -72.8% | % reduction in OD [31]: -67.9% | % reduction in OD [32]: -1.7% | signal change in competition ELISA (% reduction in OD) [34]: -75% | signal change in competition ELISA (% reduction in OD) [35]: -36% | signal change in competition ELISA (% reduction in OD) [36]: -36% | signal change in competition ELISA (% reduction in OD) [37]: -78% | signal change in competition ELISA (% reduction in OD) [38]: -2% | signal change in competition ELISA (% reduction in OD) [39]: -9% | signal change in competition ELISA (% reduction in OD) [40]: -9% | signal change in competition ELISA (% reduction in OD) [41]: -73%
B2: scFv 961 (scFv)
scFv: EIVMTQSPSTLSASVGDRVIITCQASEIIHSWLAWYQQKPGKAPKLLIYLASTLASGVPSRFSGSGSGAEFTLTISSLQPDDFATYYCQNVYLASTNGANFGQGTKLTVLGGGGGSGGGGSGGGGSGGGGSEVQLVESGGGSVQPGGSLRLSCTASGFSLTDYYYMTWVRQAPGKGLEWVGFIDPDDDPYYATWAKGRFTISRDTSKNTVYLQMNSLRAEDTATYYCAGGDHNSGWGLDIWGQGTTVTVSS

% reduction in OD [1]: -10.8% | % reduction in OD [2]: -23.1% | % reduction in OD [3]: -73.5% | % reduction in OD [4]: -65.7% | % reduction in OD [5]: -87.6% | % reduction in OD [6]: -79.9% | % reduction in OD [7]: -80.5% | % reduction in OD [8]: -93.7% | % reduction in OD [9]: -29% | % reduction in OD [10]: 2.4% | % reduction in OD [11]: -71.9% | % reduction in OD [12]: -51.4% | % reduction in OD [13]: -69.5% | % reduction in OD [14]: 3.5% | % reduction in OD [15]: -61.3% | % reduction in OD [42]: -55.5% | % reduction in OD [16]: -2.6% | % reduction in OD [17]: -50.9% | % reduction in OD [18]: -18.8% | % reduction in OD [19]: -66.7% | % reduction in OD [20]: -18.1% | % reduction in OD [21]: -60.4% | % reduction in OD [22]: -18.4% | % reduction in OD [23]: -26.1% | % reduction in OD [24]: -3.4% | % reduction in OD [25]: -43.4% | % reduction in OD [26]: -55.5% | % reduction in OD [27]: -40.5% | % reduction in OD [28]: -23.1% | % reduction in OD [29]: -4.8% | % reduction in OD [30]: -31.1% | % reduction in OD [32]: -58.8% | % reduction in OD [33]: -3.6% | signal change in competition ELISA (% reduction in OD) [34]: -23% | signal change in competition ELISA (% reduction in OD) [35]: -18% | signal change in competition ELISA (% reduction in OD) [36]: -80% | signal change in competition ELISA (% reduction in OD) [37]: -29% | signal change in competition ELISA (% reduction in OD) [38]: 4% | signal change in competition ELISA (% reduction in OD) [39]: -18% | signal change in competition ELISA (% reduction in OD) [40]: -26% | signal change in competition ELISA (% reduction in OD) [41]: -31%
B3: scFv105 (scFv)
scFv: DIVMTQSPSSLSASVGDRVTLTCTASQSVSNDVVWYQQRPGKAPKLLIYSAFNRYTGVPSRFSGRGYGTDFTLTISSLQPEDVAVYYCQQDYNSPRTFGQGTKLEVKRGGGGSGGGGSGGGGSSGGGSQVQLVQSGAEVKKPGASVKVSCTASGYTFTHYGMNWVRQAPGKGLEWMGWINTYTGEPTYADKFKDRFTFSLETSASTVYMELTSLTSDDTAVYYCARERGDAMDYWGQGTLVTVSS
